Assay results: EP1808439A2

Biological target: epiligrin-ECM^t (trypsin-treated HFK-ECM) (human) (UniProt Q16787)
Experiment: cell-based or functional assay

Chain of UniProt Q16787 (Q16787 other isoform, or with tags, fused parts or gaps): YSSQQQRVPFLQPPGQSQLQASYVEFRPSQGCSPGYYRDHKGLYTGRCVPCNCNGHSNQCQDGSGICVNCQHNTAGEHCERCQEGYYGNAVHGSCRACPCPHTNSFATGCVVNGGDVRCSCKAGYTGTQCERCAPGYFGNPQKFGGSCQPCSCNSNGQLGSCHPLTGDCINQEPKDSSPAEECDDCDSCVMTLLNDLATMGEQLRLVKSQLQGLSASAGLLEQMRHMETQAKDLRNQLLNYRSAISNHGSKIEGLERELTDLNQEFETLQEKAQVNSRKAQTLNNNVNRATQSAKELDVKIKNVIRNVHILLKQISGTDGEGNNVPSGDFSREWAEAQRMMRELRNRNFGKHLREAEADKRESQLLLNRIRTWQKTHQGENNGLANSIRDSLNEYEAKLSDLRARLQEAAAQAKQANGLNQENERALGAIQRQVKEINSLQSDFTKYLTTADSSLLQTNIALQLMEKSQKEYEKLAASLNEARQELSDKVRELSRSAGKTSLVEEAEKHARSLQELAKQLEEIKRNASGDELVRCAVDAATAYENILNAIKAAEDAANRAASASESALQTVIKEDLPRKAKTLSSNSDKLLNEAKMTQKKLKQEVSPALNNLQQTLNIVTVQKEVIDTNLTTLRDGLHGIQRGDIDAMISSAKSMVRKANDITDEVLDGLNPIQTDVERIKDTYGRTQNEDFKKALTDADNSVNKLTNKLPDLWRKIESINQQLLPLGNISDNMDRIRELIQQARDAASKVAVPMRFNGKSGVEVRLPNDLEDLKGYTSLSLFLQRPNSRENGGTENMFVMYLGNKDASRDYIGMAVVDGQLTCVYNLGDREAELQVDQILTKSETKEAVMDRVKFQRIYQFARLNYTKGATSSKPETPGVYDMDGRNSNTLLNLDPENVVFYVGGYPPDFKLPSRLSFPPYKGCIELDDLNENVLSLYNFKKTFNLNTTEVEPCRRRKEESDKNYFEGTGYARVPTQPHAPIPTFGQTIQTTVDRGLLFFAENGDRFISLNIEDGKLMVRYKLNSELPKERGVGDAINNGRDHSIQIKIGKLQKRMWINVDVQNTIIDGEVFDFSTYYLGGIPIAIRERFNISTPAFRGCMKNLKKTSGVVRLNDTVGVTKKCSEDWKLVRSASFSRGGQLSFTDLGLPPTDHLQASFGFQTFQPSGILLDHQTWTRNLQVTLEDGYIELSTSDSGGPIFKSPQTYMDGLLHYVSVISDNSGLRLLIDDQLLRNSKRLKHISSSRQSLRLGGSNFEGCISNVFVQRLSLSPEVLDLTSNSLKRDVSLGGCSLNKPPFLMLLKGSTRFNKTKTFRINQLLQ

Substance: integrin α6β4, P23229 24-1130; P16144 28-1822
- % adherent cells, 51Cr-labelled HFK on epiligrin-ECM^t, 4°C, 0 min: 30%
- % adherent cells, 51Cr-labelled HFK on epiligrin-ECM^t, 4°C, 2 min: 28%
- % adherent cells, 51Cr-labelled HFK on epiligrin-ECM^t, 4°C, 5 min: 28%
- % adherent cells, 51Cr-labelled HFK on epiligrin-ECM^t, 4°C, 10 min: 25%
- % adherent cells, 51Cr-labelled HFK on epiligrin-ECM^t, 4°C, 15 min: 37%
- % adherent cells, 51Cr-labelled HFK on epiligrin-ECM^t, 4°C, 25 min: 35%
- % adherent cells, 51Cr-labelled HFK on epiligrin-ECM^t, 4°C, 30 min: 31%
- % adherent cells, 51Cr-labelled HFK on epiligrin-ECM^t, 4°C, 45 min: 30%
- % adherent cells, 51Cr-labelled HFK on epiligrin-ECM^t, 4°C, 60 min: 35%
- % adherent cells, 51Cr-labelled HFK on epiligrin-ECM^t, 37°C, 0 min: 0%
- % adherent cells, 51Cr-labelled HFK on epiligrin-ECM^t, 37°C, 2 min: 10%
- % adherent cells, 51Cr-labelled HFK on epiligrin-ECM^t, 37°C, 5 min: 10%
- % adherent cells, 51Cr-labelled HFK on epiligrin-ECM^t, 37°C, 10 min: 20%
- % adherent cells, 51Cr-labelled HFK on epiligrin-ECM^t, 37°C, 15 min: 26%
- % adherent cells, 51Cr-labelled HFK on epiligrin-ECM^t, 37°C, 25 min: 36%
- % adherent cells, 51Cr-labelled HFK on epiligrin-ECM^t, 37°C, 30 min: 38%
- % adherent cells, 51Cr-labelled HFK on epiligrin-ECM^t, 37°C, 45 min: 50%
- % adherent cells, 51Cr-labelled HFK on epiligrin-ECM^t, 37°C, 60 min: 60%
